From the Immune Epitope Database (IEDB)
pIC50, pKd: −log10 of the molar value.

How the values were obtained:
HLA-B*53:01 = test: IEDB peptide-MHC binding, purified MHC/competitive/fluorescence; ≥ and ≤ were set here for values at or beyond the usual limits of such assays; conditions: source organism: human gammaherpesvirus 4
HLA-B*18:01 [1] = test: IEDB peptide-MHC binding, purified MHC/competitive/fluorescence; filed as Kd, often an IC50 or EC50 that approximates it; ≥ and ≤ were set here for values at or beyond the usual limits of such assays; conditions: source organism: Human herpesvirus 4 strain B95-8
HLA-A*01:01 = test: IEDB peptide-MHC binding, purified MHC/direct/fluorescence; filed as Kd, often an IC50 or EC50 that approximates it; ≥ and ≤ were set here for values at or beyond the usual limits of such assays
HLA-A*02:01 = test: as above; conditions: source organism: Mycobacterium tuberculosis
HLA-A*11:01 = test: as above
HLA-A*31:01 = test: as above
HLA-B*07:02 = test: as above; conditions: source organism: Mycobacterium tuberculosis
HLA-B*15:01 = test: as above
HLA-B*15:17 = test: as above
HLA-B*18:01 [2] = test: as above
HLA-B*27:05 = test: as above
HLA-B*40:01 = test: as above
HLA-B*46:01 = test: as above
HLA-B*48:01 = test: as above
HLA-B*57:01 = test: as above
HLA-B*58:01 = test: as above
HLA-A*26:02 = test: IEDB peptide-MHC binding, purified MHC/competitive/fluorescence; filed as Kd, often an IC50 or EC50 that approximates it; ≥ and ≤ were set here for values at or beyond the usual limits of such assays; conditions: source organism: Mycobacterium tuberculosis variant bovis BCG str. Pasteur 1173P2
HLA-A*26:03 = test: as above; conditions: source organism: Mycobacterium tuberculosis variant bovis BCG str. Pasteur 1173P2
HLA-A*68:02 = test: as above; conditions: source organism: Mycobacterium tuberculosis variant bovis BCG str. Pasteur 1173P2
HLA-A*69:01 [3] = test: as above; conditions: source organism: Mycobacterium tuberculosis variant bovis BCG str. Pasteur 1173P2
HLA-A*03:01 = test: IEDB peptide-MHC binding, purified MHC/direct/fluorescence; filed as Kd, often an IC50 or EC50 that approximates it; ≥ and ≤ were set here for values at or beyond the usual limits of such assays; conditions: source organism: Influenza A virus (A/whooper swan/Mongolia/6/05(H5N1))
HLA-A*26:01 = test: as above; conditions: source organism: Influenza A virus(A/swine/Shandong/fZC/2003(H9N2))
HLA-A*69:01 [4] = test: as above; conditions: source organism: Influenza A virus (A/whooper swan/Mongolia/6/05(H5N1))
HLA-A*80:01 = test: as above; conditions: source organism: Influenza A virus (A/whooper swan/Mongolia/6/05(H5N1))
HLA-C*05:01 = test: as above; conditions: source organism: Influenza A virus (A/Fort Monmouth/1/1947-mouse adapted(H1N1))
HLA-A*02:03 = test: IEDB peptide-MHC binding, purified MHC/competitive/fluorescence; filed as Kd, often an IC50 or EC50 that approximates it; ≥ and ≤ were set here for values at or beyond the usual limits of such assays; conditions: source organism: Influenza A virus (A/Fort Monmouth/1/1947-mouse adapted(H1N1))
[5] = source organism: Mycobacterium tuberculosis
[6] = source organism: Influenza A virus (A/whooper swan/Mongolia/6/05(H5N1))

Sequence LASAMRMLW has a pIC50 (HLA-B*53:01) of 7.11 and a pKd (HLA-B*18:01 [1]) of 5.64.

Sequence QVFKGVVIR has a pKd (HLA-A*01:01; [5]) of no more than 4.70, a pKd (HLA-A*02:01) of no more than 4.70 and a pKd (HLA-A*11:01; [5]) of 6.16. For the same sequence, the pKd (HLA-A*31:01; [5]) was 7.00, the pKd (HLA-B*07:02) was no more than 4.70 and the pKd (HLA-B*15:01; [5]) was no more than 4.70. The pKd (HLA-B*15:17; [5]) was no more than 4.70, the pKd (HLA-B*18:01 [2]; [5]) was no more than 4.70 and the pKd (HLA-B*27:05; [5]) was no more than 4.70. The pKd (HLA-B*40:01; [5]) was no more than 4.70, the pKd (HLA-B*46:01; [5]) was no more than 4.70 and the pKd (HLA-B*48:01; [5]) was no more than 4.70. The pKd (HLA-B*57:01; [5]) was no more than 4.70, the pKd (HLA-B*58:01; source organism: Mycobacterium tuberculosis str. Haarlem) was no more than 4.70 and the pKd (HLA-A*26:02) was no more than 4.70. The pKd (HLA-A*26:03) was no more than 4.70, the pKd (HLA-A*68:02) was 5.75 and the pKd (HLA-A*69:01 [3]) was no more than 4.70.

For SSDDFALIV, the pKd (HLA-A*01:01; [6]) was 6.95, the pKd (HLA-A*03:01) was no more than 4.70 and the pKd (HLA-A*11:01; [6]) was no more than 4.70. It also gave a pKd (HLA-A*26:01) of no more than 4.70, a pKd (HLA-A*31:01; [6]) of no more than 4.70 and a pKd (HLA-A*69:01 [4]) of 7.73. For the same sequence, the pKd (HLA-A*80:01) was 6.65, the pKd (HLA-B*15:01; [6]) was no more than 4.70 and the pKd (HLA-B*15:17; [6]) was 6.64. It also gave a pKd (HLA-B*18:01 [2]; [6]) of no more than 4.70, a pKd (HLA-B*27:05; [6]) of no more than 4.70 and a pKd (HLA-B*40:01; [6]) of no more than 4.70. For the same sequence, the pKd (HLA-B*46:01; [6]) was no more than 4.70, the pKd (HLA-B*48:01; [6]) was no more than 4.70 and the pKd (HLA-B*57:01; [6]) was no more than 4.70. The pKd (HLA-B*58:01; [6]) was no more than 4.70, the pKd (HLA-C*05:01) was 7.80 and the pKd (HLA-A*02:03) was no more than 4.70.
